# Data reported in patent US10654915B2, “Antibodies useful in passive influenza immunization” (priority 2011, dated 2020).
# Several values for one entry are separate records, joined by “and”; a condition that tells them apart may be missing. Equal entries are not always repeated. Where two headings read alike, the source gives them in different places.
# B1: MAB53 (antibody, V domains shown)
# VH: QVQLVQSGAEVRKPGSSVKVSCKVSGGIIRKYAINWVRQAPGQGLEWMGGIIAIFNTANYAQKFQGRVTITADESTSTVYMELSSLRSEDTALYYCARGMNYYSDYFDYWGQGSLVTVSP
# VL: EIVLTQSPGTLSLSPGERATLSCRASQSVRSNNLAWYQHKPGQAPRLLIFGASSRATGIPDRFSGSGSGTDFTLTISRLEPEDFAVYYCQQYGSSPALTFGGGTKVEIK
# modifications: CHAIN (1)...(120) MAB53 heavy chain sequence of variable domain; DOMAIN (31)...(35) CDR1; DOMAIN (50)...(66) CDR2; DOMAIN (99)...(110) CDR3; CHAIN (1)...(109) MAB53 light chain sequence; DOMAIN (24)...(35) CDR1; DOMAIN (51)...(57) CDR2; DOMAIN (90)...(98) CDR3
# Tests used:
# [1] = molecular target: H9 HA; format: binding, influenza A; conditions: read-out: affinity
# [2] = molecular target: HA of clades spanning Group 1; assay: Standard FortéBio assay (FIG. 3A); format: binding, influenza A; conditions: Group 1, FIG. 3A
# [3] = tested on: HA1; assay: Binding to HA1; parameters: species or system influenza A
# [4] = tested on: H9N2 Mallard/MN/98; format: cell-based, influenza A
# [5] = tested on: H5N1; parameters: species or system mice; conditions: mouse, in vivo
# [6] = tested on: H1N1; parameters: species or system mice; conditions: mouse, in vivo
# [7] = tested on: A/Ca/04/09 (H1N1); assay: In vivo efficacy, treatment at Day 2; parameters: species or system mice; conditions: IP at Day 2, 10 mg/kg (mixture 10 mg/kg each), FIGS. 6A, 6C
# [8] = tested on: virus 10 times the LD50 delivered intranasally; assay: Prophylaxis in mice, potency (EC50); format: in vivo; conditions: single intraperitoneal dose at Day -1, virus at Day 0
# [9] = tested on: H1N1 Influenza A/Ca/04/09; assay: Comparison to treatment with Tamiflu in infected mice; format: in vivo
# [10] = molecular target: H5 HA; format: binding, influenza A; conditions: read-out: affinity
# [11] = tested on: H2N2 A/Mallard/MN/2008; format: cell-based, influenza A
# [12] = molecular target: H7 HA; format: binding, influenza A; conditions: read-out: affinity
# [13] = molecular target: H1N1 A/CA/07/09 (H1 Calif/07/09) HA; format: binding, influenza A
# [14] = tested on: H5N1 A/VN/1204; format: cell-based, influenza A
# [15] = tested on: Philippines 2/82; parameters: species or system mice; conditions: mouse, in vivo
# [16] = tested on: H7N3; format: cell-based, influenza A
# [17] = tested on: H1N1: A/CA/04/09; parameters: species or system mice; conditions: mouse, in vivo, ip, 10 mg/kg
# [18] = tested on: H5N1; format: cell-based, influenza A
# [19] = tested on: H9N2; format: cell-based, influenza A
# [20] = molecular target: H5N1 A/VN/1204 (H5 Vietnam/1203/2004) HA; format: binding, influenza A
# [21] = molecular target: H1 HA; format: binding, influenza A; conditions: read-out: affinity
# [22] = tested on: H1N1; format: cell-based, influenza A
# [23] = tested on: H5N1: A/Vietnam/1203/04/HPAI; parameters: species or system mice; conditions: mouse, in vivo, ip, 10 mg/kg
# [24] = tested on: H1N1 A/CA/07/09; assay: MDCK monolayer microneutralization assay; format: cell-based, influenza A
molecule,measurement,setting,value
B1,Kd,[1],0.03 nM
same,affinity across clades (in words),[2],sub-nM affinity
same,binding to HA1,[3],does not bind HA1
same,EC50,[4],0.10 mg/L
same,survival,[5],80% and 60% and 50%
same,survival,[6],90% and 50%
same,protection / survival,[7],protective
same,EC50 (prophylaxis potency),[8],0.4 mg/kg
same,survival,"[9]; 10 mice per group, treatment from Day +1, to Day 14",eight of the ten mice survived past Day 8 to Day 14
same,weight relative to original weight (in words),[9]; by Day 14,the original weight was exceeded
same,day at which decline in weight was reversed,[9]; treatment from Day +1,4 days
same,Kd,[10],6 nM
same,EC50,[11],1.20 mg/L
same,Kd,[12],0.07 nM
same,Kd,[13],0.1 nM
same,EC50,[14],0.10 mg/L
same,Potency Difference,[14],40x
same,protection / survival,[15],resulted in death after 10 days
same,low doses that neutralized infection,[16],1 to 5 µg/mL
same,therapeutic effectiveness (survival),[17],fully effective
same,low doses that neutralized infection,[18],1 to 5 µg/mL
same,low doses that neutralized infection,[19],1 to 5 µg/mL
same,Kd,[20]; read-out: Affinity by FortéBio,0.5 nM
same,Kd,[20]; read-out: KD,0.5 nM
same,Kd,[21],0.06 nM
same,low doses that neutralized infection,[22],1 to 5 µg/mL
same,therapeutic effectiveness (survival),[23],fully effective
same,Potency Difference,"[24]; MAB53 vs CR6261 EC50, H1N1 A/CA/07/09",30x
same,EC50,"[24]; in vitro neutralization, H1N1 A/CA/07/09",0.14 mg/L
